Experimental data taken from the supplement of paper PMC9732359.
± gives the uncertainty stated by the source.

Test: protein stability index of a GFP-peptide fusion (yeast GPS) (PSI 1-4); higher = more stable; sorted into four equal gates, so the index is relative within each strain
Summary of the method: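 Yeast carrying a pooled library were grown to mid-log phase in leucine-free medium. Each library plasmid expresses Cherry and has a tiled 17-residue yeast protein peptide fused downstream of GFP. Cells were sorted into four equal gates by GFP/Cherry ratio, and plasmids from each gate were PCR-amplified, Illumina-sequenced and assigned to strains by barcode. Summing, across gates, the read frequency times the gate number gave each peptide's protein stability index.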

| Sequence | protein stability index (doa10∆) | protein stability index (pdr5∆) | protein stability index (san1∆) | protein stability index (ubr1∆) |
| --- | --- | --- | --- | --- |
| MVNSHGIRYIRLKQVFN [NNF1] | 1.46 ± 0.048 | 1.67 ± 0.04 | 1.88 ± 0.19 | 1.81 ± 0.052 |
| FAAKQRQELQMQRQQQG [SNF2] | 2.66 ± 0.052 | 2.84 ± 0.046 | 2.71 ± 0.038 | 2.7 ± 0.045 |
| FKERQMMVSYPKIDEDD [AAR2] | 3.28 ± 0.061 | 3.2 ± 0.055 | 3.19 ± 0.045 | 3.35 ± 0.043 |
| QLTEFWTELCQREFKEI [NNF1] | 2.98 ± 0.21 | 3.41 ± 0.16 | 3.06 ± 0.07 | 3.09 ± 0.069 |
| EFCDEPSVGVKTMKTFV [RPB5] | 3.15 ± 0.12 | 3.56 ± 0.27 |  |  |
| LQRKDYTSIVQCCEFMT [YML103C/NUP188] | 1.48 ± 0.059 | 1.62 ± 0.048 | 2.05 ± 0.079 | 1.9 ± 0.044 |
| GDPFDYKAQADTFYMNV [RPB3] | 3.4 ± 0.1 | 3.44 ± 0.1 | 3.33 ± 0.063 | 3.36 ± 0.083 |
| LRWFELKPKLYYEQFRP [SIR3] | 3.21 ± 0.074 | 2.98 ± 0.067 | 2.71 ± 0.077 | 3 ± 0.047 |
| IAASYHYPEIEDLVDRI [RPP0] |  | 1.89 ± 0.16 |  |  |
| VSKMEKAEKTLKSTKHS [SMC4] | 2.69 ± 0.052 | 2.42 ± 0.044 | 2.33 ± 0.042 | 2.83 ± 0.031 |
| YQLYTSNPSGNYTGWKA [PRE9] | 2.9 ± 0.065 | 3.08 ± 0.065 | 3.14 ± 0.055 | 3.17 ± 0.04 |
| SAGKGISSSAIPYSRNA [RPS13] | 2.61 ± 0.037 | 2.58 ± 0.041 | 2.36 ± 0.048 | 2.21 ± 0.029 |
| KISEGSAKPTFSFSKSE [YOR098C/NUP1] | 1.75 ± 0.11 | 1.92 ± 0.17 | 2.11 ± 0.2 | 1.77 ± 0.11 |
| PNSSANNNPLQQQSSQN [GAL11] | 2.99 ± 0.051 | 3.03 ± 0.045 | 3.02 ± 0.033 | 2.98 ± 0.034 |
| VLITDHIEKLENEFVVL [CDC53] | 3.05 ± 0.061 | 2.61 ± 0.055 | 2.1 ± 0.087 | 2.58 ± 0.054 |
| KLCYVLGVEDITLIDSA [RET1] | 1.58 ± 0.12 | 1.73 ± 0.25 | 1.26 ± 0.27 | 1.74 ± 0.07 |
| PKNQQYRAFGSIWQVKD [MED7] | 2.45 ± 0.084 | 2.7 ± 0.082 | 2.54 ± 0.08 | 2.64 ± 0.063 |
| LIIDGQIIFGVVEKKTV [RPO21] | 1.37 ± 0.087 | 1.38 ± 0.065 | 1.2 ± 0.2 | 1.54 ± 0.07 |
| IRENKVTYSRVSKKVDV [BRN1] | 2.76 ± 0.1 | 2.93 ± 0.11 | 2.94 ± 0.081 | 3.04 ± 0.087 |
| VKQEDMPFNDQGIVPDI [RET1] | 2.86 ± 0.084 | 3.06 ± 0.059 | 2.91 ± 0.064 | 3.17 ± 0.043 |
| KPSLVDVHLLESKVYHK [RPN6] | 1.74 ± 0.045 | 1.9 ± 0.053 | 1.77 ± 0.086 | 2.05 ± 0.061 |
| IADELMKLDDSSKTRNV [ITC1] | 2.61 ± 0.072 | 2.09 ± 0.12 | 2.69 ± 0.072 | 2.78 ± 0.08 |
| HAYNITFNNQDKGLLPY [RPO31] | 2.64 ± 0.09 | 3.09 ± 0.2 | 1.76 ± 0.098 | 2.91 ± 0.057 |
| MALKKNTHNKSTKRVTK [POP7] | 2.71 ± 0.1 | 2.73 ± 0.11 | 2.82 ± 0.053 | 2.84 ± 0.06 |
| KNIAQCLSDYTKKISNF [YJL039C/NUP192] | 1.79 ± 0.055 | 2.22 ± 0.055 | 2.02 ± 0.068 | 1.49 ± 0.036 |
| MLSFCPSCNNMLLITSG [RPC11] | 1.26 ± 0.082 | 2.97 ± 0.13 |  | 2.83 ± 0.072 |
| MLVDLNVPWPQNSYADK [RPP1] | 1.59 ± 0.27 | 1.08 ± 0.14 |  | 1.12 ± 0.15 |
